Laboratory results reported in publication PMC3666333 (Nature communications, 2013).

Target: the molecule itself
Test: SAXS titration

B1: Gp4D (residues 241-566, 36-kDa), minimal fragment of the T7 gene 4 helicase that forms hexameric rings (domain or fragment, bacteriophage T7, UniProt P03692 241-566, looked up)
chain: CHLNGHDREIMEQVWNAGPWIPDGVVSALSLRERIREHLSSEESVGLLFSGCTGINDKTLGARGGEVIMVTSGSGMGKSTFVRQQALQWGTAMGKKVGLAMLEESVEETAEDLIGLHNRVRLRQSDSLKREIIENGKFDQWFDELFGNDTFHLYDSFAEAETDRLLAKLAYMRSGLGCDVIILDHISIVVSASGESDERKMIDNLMTKLKGFAKSTGVVLVVICHLKNPDKGKAHEEGRPVSITDLRGSGALRQLSDTIIALERNQQGDMPNLVLVRILKCRFTGDTGIAGYMEYNKETGWLEPSSYSGEEESHSESTDWSNDTDF
B1: binds.
